Measurements as given in patent US7618943B2, “Fusion polypeptides, and use thereof in antivascular tumor therapy” (Oncoscience AG, priority 2003, dated 2009).
“Also recorded” adds a separate entry of the source.

Experiments:
[1] = target: integrin αvβ3 (Homo sapiens, UniProt P05106+P06756); experiment: ELISA binding to immobilized purified αvβ3
Experimental: FIG. 4: Binding of tTF, tTF-RGD and tTF-NGR to integrin αvβ3. The binding of 0.1 μM tTF, tTF-RGD and tTF-NGR to immobilized αvβ3 was quantified with a polyclonal antibody against human TF (American Diagnostica) in an ELISA. The results are presented as median and interquartile range. The differences in binding between tTF-RGD and tTF or between tTF-NGR and tTF were statistically significant (p<0.001, Mann-Whitney test).

[2] = test system: human endothelial cells; experiment: FACS binding of biotinylated proteins to endothelial cells in suspension; type: cell-based; details: 0.1 μM tTF-RGD, 1 μM competing peptide
Experimental: FIG. 6: Binding of tTF and tTF-RGD to human endothelial cells. A: FACS analysis of endothelial cells incubated with 0.1 μM tTF (2) or with 0.1 μM tTF-RGD (3) for 60 min at 4° C. […] Curves 1 in A and B show the negative control.
Next the specific binding of tTF-RGD to αvβ3 on endothelial cells was evaluated. For this, the differential binding of biotinylated tTF and tTF-RGD to endothelial cells in suspension was analysed by FACS (Fluorescence Activated Cell Sorting). The fact that all endothelial cells held in tissue culture are activated, i.e. express αvβ3 molecules, is utilized experimentally. This can be detected by various immunohistochemical methods. A cultivated endothelial cell thus corresponds, in relation to its expression pattern with respect to αvβ3 to a tumor endothelial cell. Accordingly, a cultivated endothelial cell can be used as a model system for the specific binding of substances to tumor endothelial cells and also permits predictions to be made concerning the expected toxicity.
Streptavidin-phycoerythrin was used as the detection method. The measured fluorescence intensity for tTF-RGD was higher by a factor of 8 than for tTF (FIG. 6A). Furthermore, the binding of 0.1 μM tTF-RGD to endothelial cells was lowered competitively by 75% by the administration of 1 μM of the synthetic peptide GRGDSP (SEQ ID NO:33) (FIG. 6B). […]

[3] = target: T1, activation of factor X to factor Xa via factor VIIa (Homo sapiens, UniProt P08709); experiment: Cofactor activity in activation of FX by FVIIa (Michaelis-Menten analysis, chromogenic FXa readout); type: biochemical; details: in the presence of phospholipids
T1 construct: 50 nM recombinant FVIIa (Novo-Nordisk) in TBS-BSA; purchased Novo-Nordisk (FVIIa); Enzyme Research Laboratories (FX)
T1 sequence (P08709 61-212 limits assumed): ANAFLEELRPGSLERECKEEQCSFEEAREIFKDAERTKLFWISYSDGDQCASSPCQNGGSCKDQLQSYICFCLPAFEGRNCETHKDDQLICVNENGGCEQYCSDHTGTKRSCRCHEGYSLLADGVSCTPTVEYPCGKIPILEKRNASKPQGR
T1 sequence (P08709 213-466 limits assumed): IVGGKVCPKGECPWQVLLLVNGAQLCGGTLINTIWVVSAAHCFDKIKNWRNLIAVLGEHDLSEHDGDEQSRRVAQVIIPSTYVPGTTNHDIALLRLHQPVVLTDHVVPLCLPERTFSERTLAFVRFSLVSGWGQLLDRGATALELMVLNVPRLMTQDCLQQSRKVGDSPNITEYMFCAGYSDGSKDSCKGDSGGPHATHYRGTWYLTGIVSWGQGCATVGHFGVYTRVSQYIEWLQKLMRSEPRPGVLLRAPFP
Experimental: The ability of tTF and of the tTF fusion polypeptides to intensify the specific proteolytic activation of FX via FVIIa in the presence of phospholipids was determined in a slightly modified version of the method described by Ruf (45). For this, 20 μl of each of the following reagents was pipetted in microtiter plates: (a) 50 nM recombinant FVIIa (Novo-Nordisk) in TBS-BSA; (b) 0.16 nM-1.6 μM tTF/tTF fusion polypeptide in TBS-BSA; (c) 25 mM CaCl2 and 500 μM phospholipid vesicle (phosphatidylcholine/phosphatidylserine, 70/30, M/M; Sigma). After 10 min incubation at room temperature, 20 μl of the natural substrate FX (Enzyme Research Laboratories) was added at a concentration of 5 μM. Then a sample was taken by pipette at one-minute intervals and the reaction was stopped by adding 100 mM EDTA solution. The amount of FXa that formed was measured by addition of the chromogenic substrate Spectrozyme FXa in a Microplate Reader by determining the change in absorption at 405 nm and the parameters for the Michaelis-Menten kinetics were analysed by the method described by Ruf. […] The Michaelis constants (Km) found for the fusion polypeptides were in the range 0.12-1.2 nM (FIG. 3), and thus in the lower range that is published for tTF. It can therefore be assumed that the functional activity is unaffected by the fusing of tTF with the peptides.

[4] = test system: human malignant melanoma (M21); experiment: M21 melanoma xenograft in athymic nude mice, intravenous therapy; type: in vivo
Experimental: The vertical arrows indicate the times of injection with the respective substances.
The vertical arrows indicate the times of the injections with the respective substances.
(§1) The tTF-RGD and tTF-NGR fusion proteins were evaluated with respect to their effects and side-effects on xenografts of human tumors in athymic nude mice. The models established in our laboratory were used for this (33, 34). The cell lines CCL185 (human adenocarcinoma of the lung) and M-21 (human melanoma) were injected subcutaneously into the flank of male BALB/c nude mice (9-12 weeks old). On attaining a tumor volume of about 50-100 mm^3 (CCL185) or 400-600 mm^3 (M−21), the mice were assigned to four groups at random. Group 1 received only physiological saline solution (NaCl), group 2 tTF, group 3 tTF-RGD, and group 4 tTF-NGR (in each case 1.5-2.0 mg/kg body weight (BW) of the protein). The injections were made in the caudal vein of the animals at intervals of 1-3 days (depending on the growth rate of the particular cell line). Considerable therapeutic activity of the fusion proteins was observed.

[5] = test system: human fibrosarcoma (HT1080); experiment: HT1080 fibrosarcoma xenograft in BALB/c nude mice, intravenous therapy; type: in vivo; details: HT1080 tumors
Description: b: Inhibition of a human fibrosarcoma (HT1080) growing as a xenograft in athymic nude mice by intravenous therapy with tTF fusion proteins (tTF-RGD, n=12) compared with the growth of the tumors with infusion of physiological saline solution (NaCl, n=15) or tTF (n=14). The vertical arrows indicate the times of the injections with the respective substances.
The antitumor activity of the tTF-RGD fusion protein was also investigated in BALB/c nude mice with fibrosarcomas (HT1080). These tumors grow rapidly and are well-vascularized. […] This effect lasted until the end of the experiment on day 7 (P=0.021 for tTF-RGD relative to the buffer control (physiological saline solution), P=0.005 for tTF-RGD relative to tTF).

[6] = test system: human lung carcinoma (CCL185); experiment: CCL185 lung carcinoma xenograft in athymic nude mice, intravenous therapy; type: in vivo
Description: FIG. 7: Inhibition of a human lung carcinoma (CCL185) growing as a xenograft in athymic nude mice by intravenous therapy with tTF fusion proteins (tTF-RGD, n=6; tTF-NGR, n=6) compared with tumor growth with infusion of physiological saline solution (NaCl, n=8) or tTF (n=1). The vertical arrows indicate the times of injection with the respective substances.
c: Inhibition of a human lung carcinoma (CCL185) growing as a xenograft in athymic nude mice by intravenous therapy with tTF fusion proteins (tTF-RGD, n=11) compared with the growth of the tumors in infusion of physiological saline solution (NaCl, n=10) or tTF (n=5). The vertical arrows indicate the times of the injections with the respective substances.
as §1

[7] = test system: tumor blood vessels; experiment: Macroscopy and histology of tumors after injection (thrombosis induction in tumor vessels, necrosis); type: in vivo, mice
Experimental: FIG. 9: Macroscopic in vivo photograph of a tumor-bearing mouse 20 min after injection of the tTF-NGR fusion protein (A, left half of the picture) or NaCl (A, right half of the picture). […] After 60 min, the two mice were exsanguinated, the tumor was excised in toto and examined histologically. […] In contrast, the NaCl-treated tumor appears to be vital (C).
FIG. 10: Histology of the melanoma tumor 1 hour after intravenous injection of tTF-RGD (A and B), tTF-NGR (C and D) and common salt (E and F) in the caudal vein of the tumor-bearing nude mouse. […] The photographs are of representative areas of the tumors (A, C and E: 200× magnification, B, D and F 400× magnification; HE staining (staining described e.g. in H. C. Burck, Histologische Technik-Leitfaden für die Herstellung mikroskopischer Präparate in Unterricht und Praxis, 5th edition, Thieme Verlag, Stuttgart 1982, pages 109 ff.).
FIG. 35: Macrograph of a mouse bearing an M21 tumor at the end of treatment (day 7) with tTF-RGD fusion protein (A, C) or NaCl (B, D).
To verify the mechanism of action of thrombosis induction in tumor vessels, the following experiment was carried out: the human melanoma cell line was injected into the flank of two male BALB/c nude mice. On attaining a tumor size of approx. 500 mm^3, 2.0 mg/kg BW tTF-NGR or NaCl was injected into the caudal vein. […] After 60 min the mice were exsanguinated, the tumor was excised in toto and investigated histologically. […] In contrast, the tumor treated with NaCl appears to be vital (FIG. 9C).

[8] = test system: normal tissue such as heart, kidney, liver and lung; experiment: Histology of normal organs after injection (clotting, necrosis, organ toxicity); details: repeated high doses (4 mg/kg BW)
[9] = melanoma tumor 1 hour after intravenous injection, HE staining

Sequence of integrin αvβ3 (P06756 31-889 limits assumed): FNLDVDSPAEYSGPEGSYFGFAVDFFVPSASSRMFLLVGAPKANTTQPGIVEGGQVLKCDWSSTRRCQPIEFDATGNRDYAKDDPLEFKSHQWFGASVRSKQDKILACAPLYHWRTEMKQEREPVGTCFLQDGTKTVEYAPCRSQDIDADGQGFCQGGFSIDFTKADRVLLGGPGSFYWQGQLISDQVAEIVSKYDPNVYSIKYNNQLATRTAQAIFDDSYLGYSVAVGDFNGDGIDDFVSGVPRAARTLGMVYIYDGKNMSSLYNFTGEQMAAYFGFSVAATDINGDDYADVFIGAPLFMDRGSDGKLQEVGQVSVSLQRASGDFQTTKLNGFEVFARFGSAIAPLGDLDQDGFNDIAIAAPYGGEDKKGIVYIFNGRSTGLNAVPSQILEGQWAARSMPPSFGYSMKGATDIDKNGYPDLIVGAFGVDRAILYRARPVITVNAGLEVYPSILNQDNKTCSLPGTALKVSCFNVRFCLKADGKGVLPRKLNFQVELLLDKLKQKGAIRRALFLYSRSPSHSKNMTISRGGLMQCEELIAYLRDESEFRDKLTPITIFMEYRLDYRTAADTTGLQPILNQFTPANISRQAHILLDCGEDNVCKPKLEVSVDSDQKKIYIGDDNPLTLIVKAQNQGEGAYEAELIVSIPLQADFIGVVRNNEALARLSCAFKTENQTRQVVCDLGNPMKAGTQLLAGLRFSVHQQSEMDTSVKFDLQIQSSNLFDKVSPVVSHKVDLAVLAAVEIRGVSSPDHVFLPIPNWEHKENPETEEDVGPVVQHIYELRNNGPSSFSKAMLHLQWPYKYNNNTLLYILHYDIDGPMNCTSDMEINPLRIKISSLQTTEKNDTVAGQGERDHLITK
Sequence of integrin αvβ3 (P06756 891-1048 limits assumed): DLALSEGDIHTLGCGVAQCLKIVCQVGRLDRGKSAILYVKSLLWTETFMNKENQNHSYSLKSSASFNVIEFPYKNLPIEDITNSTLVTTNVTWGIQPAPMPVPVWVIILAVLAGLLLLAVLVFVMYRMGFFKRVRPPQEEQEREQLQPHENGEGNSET
Sequence of integrin αvβ3 (P05106 27-788): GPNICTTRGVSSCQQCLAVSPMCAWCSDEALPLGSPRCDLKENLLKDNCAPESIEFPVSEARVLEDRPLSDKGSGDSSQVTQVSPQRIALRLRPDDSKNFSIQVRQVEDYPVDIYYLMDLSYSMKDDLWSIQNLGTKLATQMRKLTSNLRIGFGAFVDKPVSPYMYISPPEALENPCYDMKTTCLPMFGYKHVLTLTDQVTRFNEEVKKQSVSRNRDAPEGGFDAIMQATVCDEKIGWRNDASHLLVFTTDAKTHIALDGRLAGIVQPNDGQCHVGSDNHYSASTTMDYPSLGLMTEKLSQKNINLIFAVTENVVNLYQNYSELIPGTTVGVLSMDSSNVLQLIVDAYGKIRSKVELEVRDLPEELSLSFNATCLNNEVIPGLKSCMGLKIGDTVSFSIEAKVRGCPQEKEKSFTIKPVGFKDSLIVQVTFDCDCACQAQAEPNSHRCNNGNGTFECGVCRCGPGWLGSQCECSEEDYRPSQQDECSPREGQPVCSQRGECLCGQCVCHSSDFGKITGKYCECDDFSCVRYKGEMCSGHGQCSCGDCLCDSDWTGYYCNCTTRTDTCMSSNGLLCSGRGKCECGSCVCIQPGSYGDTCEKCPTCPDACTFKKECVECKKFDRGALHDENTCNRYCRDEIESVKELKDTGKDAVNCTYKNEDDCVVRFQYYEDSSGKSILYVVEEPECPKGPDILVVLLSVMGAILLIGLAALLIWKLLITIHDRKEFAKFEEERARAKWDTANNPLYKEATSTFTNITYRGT

## GRGDSP: synthetic peptide with the sequence GRGDSP (SEQ ID NO:33) from the company Gibco
[1]; both RGD peptide concentrations (1-10 μM)
  p of inhibition of tTF-RGD binding (Mann-Whitney test): < 0.001
[1]; tTF-RGD 0.1 μM, peptide 1-10 μM
  competitive inhibition of binding of tTF-RGD to immobilized αvβ3: competitively inhibits; also recorded: inhibited significantly
[2]
  reduction in binding of tTF-RGD to endothelial cells: 75%

B1: tTF: truncated human tissue factor, N-terminal 218 amino acids of TF (SEQ ID NO:2) (protein, listed as Homo sapiens)
chain: SGTTNTVAAYNLTWKSTNFKTILEWEPKPVNQVYTVQISTKSGDWKSKCFYTTDTECDLTDEIVKDVKQTYLARVFSYPAGNVESTGSAGEPLYENSPEFTPYLETNLGQPTIQSFEQVGTKVNVTVEDERTLVRRNNTFLSLRDVFGKDLIYTLYYWKSSSSGKKTAKTNTNEFLIDVDKGENYCFSVQAVIPSRTVNRKSTDSPVECMGQEKGEFR
modifications: Amino acid sequence of tTF1-218
[3]
  functional activity (cofactor activity in FX activation via FVIIa): functionally active
[4]; M21 tumors, Day 0 (baseline)
  Mean tumor volume Day 0: 558 ± 47 mm^3
[4]; M21 tumors, Day 7
  Mean tumor volume Day 7: 931 ± 147 mm^3
[5]; Day 0 (baseline)
  Mean tumor volume Day 0: 1751 ± 269 mm^3
[5]; Day 7
  Mean tumor volume Day 7: 2335 ± 398 mm^3
[6]; CCL185 tumors, Day 0 (baseline)
  Mean tumor volume Day 0: 44 ± 8 mm^3
[6]; CCL185 tumors, Day 7
  Mean tumor volume Day 7: 764 ± 148 mm^3

B2: tTF-NGR: fusion polypeptide tTF-GNGRAHA (SEQ ID NO:4) (protein)
chain: SGTTNTVAAYNLTWKSTNFKTILEWEPKPVNQVYTVQISTKSGDWKSKCFYTTDTECDLTDEIVKDVKQTYLARVFSYPAGNVESTGSAGEPLYENSPEFTPYLETNLGQPTIQSFEQVGTKVNVTVEDERTLVRRNNTFLSLRDVFGKDLIYTLYYWKSSSSGKKTAKTNTNEFLIDVDKGENYCFSVQAVIPSRTVNRKSTDSPVECMGQEKGEFRGNGRAHA
modifications: Amino acid sequence of tTF-GNGRAHA
[1]; 0.1 μM protein, immobilized αvβ3
  binding to the αvβ3 integrin in ELISA: demonstrated
[4]; M21 xenograft, intravenous therapy, compared with NaCl or tTF
  effect on tumor growth: Inhibition and partial remission
[6]; CCL185 xenograft, intravenous therapy, compared with NaCl or tTF
  effect on tumor growth: Inhibition
[7]; [9]
  histology of tumor blood vessels (thrombus formation): microscopically visible thrombus formation in the blood vessels; also recorded: blood vessels appear to be thrombolytically occluded
  histology: tumor necrosis in supply region of occluded vessel: Extensive tumor necroses
[7]; melanoma, 20 min after 2.0 mg/kg BW into the caudal vein
  macroscopic picture of the tumor in vivo: bluish-livid coloration of the tumor
[7]; melanoma, excised 60 min after 2.0 mg/kg BW
  appearance of the excised tumor: hemorrhagic imbibition of the tumor
[8]
  visible clot formation or organ toxicity: did not lead to any visible clot formation or organ toxicity
